From paper PMC3669277, “Interactions between the R2R3-MYB Transcription Factor, AtMYB61, and Target DNA Binding Sites”
Changes are numbered by the printed parent chain. In names and notes the source's numbering stands.

Experiments:
AtMYB61 [1] = biological target: T1, AtMYB61 (Arabidopsis thaliana, UniProt Q8VZQ2 1-366); assay: filter binding; Buffer, salt, pH and temperature not stated (filter binding per Hall and Kranz; EMSA per earlier work); filter binding with 1065 nM probe (124.41 ng, 60 bp) in; conditions: protein: recombinant; tags: pET15b (NdeI/BamHI) fusion
AtMYB61 [2] = biological target: T1, AtMYB61; assay: EMSA; 5E-08 M protein; Buffer, salt, pH and temperature not stated (filter binding per Hall and Kranz; EMSA per earlier work); filter binding with 1065 nM probe (124.41 ng, 60 bp) in; conditions: protein: recombinant; tags: pET15b (NdeI/BamHI) fusion

T1 sequence (Q8VZQ2 whole entry, the tested form may be a part): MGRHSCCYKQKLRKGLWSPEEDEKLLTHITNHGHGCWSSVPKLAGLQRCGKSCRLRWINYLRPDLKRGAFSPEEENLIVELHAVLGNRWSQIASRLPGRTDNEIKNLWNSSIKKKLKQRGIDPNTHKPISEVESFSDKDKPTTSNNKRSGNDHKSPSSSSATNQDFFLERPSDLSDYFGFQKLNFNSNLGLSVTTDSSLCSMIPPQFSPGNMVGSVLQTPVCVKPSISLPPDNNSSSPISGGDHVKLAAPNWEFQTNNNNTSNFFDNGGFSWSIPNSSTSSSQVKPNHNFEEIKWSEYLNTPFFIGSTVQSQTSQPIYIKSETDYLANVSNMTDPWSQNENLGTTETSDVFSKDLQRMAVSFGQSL

B1: ACCTAC (AC-I) (dsDNA)
DNA 1: ACATTGGGCGAGAAAAGCTGATCCCCACCTACCCGGGCTATCTCCCCCTCCTCCTCCGATCTG
DNA 2: CAGATCGGAGGAGGAGGGGGAGATAGCCCGGGTAGGTGGGGATCAGCTTTTCTCGCCCAATGT
AtMYB61 [1]
  Kd: 9.12 nM

B2: ACCACA (dsDNA)
DNA 1: B1 DNA 1 with T30A, A31C, C32A
DNA 2: B1 DNA 2 with G32T, T33G, A34T
AtMYB61 [1]
  Kd: 80.8 nM

B3: ACCACC (dsDNA)
DNA 1: B1 DNA 1 with T30A, A31C
DNA 2: B1 DNA 2 with T33G, A34T
AtMYB61 [1]
  Kd: 690 nM

B4: ACCTAG (AC-I mutant, C6G) (dsDNA)
DNA 1: B1 DNA 1 with C32G
DNA 2: B1 DNA 2 with G32C
AtMYB61 [1]
  Kd: 56 nM

B5: ACCATA (dsDNA)
DNA 1: B1 DNA 1 with T30A, A31T, C32A
DNA 2: B1 DNA 2 with G32T, T33A, A34T
AtMYB61 [1]
  Kd: 18.3 nM

B6: ACCGAC (AC-I mutant, T4G) (dsDNA)
DNA 1: B1 DNA 1 with T30G
DNA 2: B1 DNA 2 with A34C
AtMYB61 [1]
  Kd: 719 nM

B7: ACCAAT (dsDNA)
DNA 1: B1 DNA 1 with T30A, C32T
DNA 2: B1 DNA 2 with G32A, A34T
AtMYB61 [1]
  Kd: 12.1 nM

B8: ACCAAA (dsDNA)
DNA 1: B1 DNA 1 with T30A, C32A
DNA 2: B1 DNA 2 with G32T, A34T
AtMYB61 [1]
  Kd: 16.8 nM

B9: ACCTGC (AC-I mutant, A5G) (dsDNA)
DNA 1: B1 DNA 1 with A31G
DNA 2: B1 DNA 2 with T33C
AtMYB61 [1]
  Kd: 79.7 nM

B10: ACCAAC (dsDNA)
DNA 1: B1 DNA 1 with T30A
DNA 2: B1 DNA 2 with A34T
AtMYB61 [1]
  Kd: 73.7 nM

B11: NBS (non-binding site, GAGACC) (dsDNA)
DNA 1: B1 DNA 1 with A27G, C28A, C29G, T30A, A31C
DNA 2: B1 DNA 2 with T33G, A34T, G35C, G36T, T37C
AtMYB61 [2]
  binding result: no binding
